Results taken from patent publication US20230002480A1.

Legend:
Assay in all cases: cell-based or functional assay
[1] = target: HIV-1 Env of pseudovirus 1394C9G1 (Rev-) (HIV-1)
[2] = target: HIV-1 Env pseudovirus 6545.v4.c1 (HIV-1)
[3] = target: HIV-1 Env pseudovirus CNE5 (HIV-1)
[4] = target: HIV-1 Env pseudovirus T251-18 (HIV-1)
[5] = target: MuLV pseudovirus (Neg. Control) (MuLV)
[6] = target: HIV-1 Env of pseudovirus CNE58 (clade BC) (HIV-1)
[7] = target: HIV-1 Env of pseudovirus 1006_11_C3_1601 (clade B (T/F)) (HIV-1)
[8] = target: HIV-1 Env of pseudovirus MS208A1 (HIV-1)
[9] = target: HIV-1 Env of pseudovirus CNE8 (clade CRF01_AE) (HIV-1)

Substance	IC50 [2] [µg/mL]	IC80 [2] [µg/mL]	MPI [2]	IC50 [4] [µg/mL]	IC80 [4] [µg/mL]	MPI [4]	IC50 [6] [µg/mL]	IC80 [6] [µg/mL]	MPI [6]	IC50 [7] [µg/mL]	IC80 [7] [µg/mL]	MPI [7]	other results
VRC01 (antibody)													IC50, titer in TZM.bl cells [1]: 0.36 µg/mL; IC80, titer in TZM.bl cells [1]: 1.28 µg/mL
N49P9.1 (antibody)	> 50	> 50	6	0.127	0.352	100							IC50 [3]: 0.183 µg/mL; IC80 [3]: 0.641 µg/mL; MPI [3]: 100
N49P19 (antibody)	> 50	> 50	2	0.938	4.2	100							IC50 [5]: > 50 µg/mL; IC80 [5]: > 50 µg/mL; MPI [5]: 0; IC50 [3]: 0.748 µg/mL; IC80 [3]: 3.29 µg/mL; MPI [3]: 100
N49P9 (antibody)	> 50	> 50	20	0.147	0.517	100							IC50 [5]: > 50 µg/mL; IC80 [5]: > 50 µg/mL; MPI [5]: 13
N49P7.2 (antibody)							0.045	0.129	100	0.085	0.237	100	
N49P7 (antibody)													neutralization IC50 [8]: 0.12 µg/mL; neutralization IC80 [8]: 0.479 µg/mL; neutralization MPI [8]: 100
N49P18.1 (antibody)							1.92	5.26	100	2.8	9.66	99	
10-1074 (antibody)													IC50, titer in TZM.bl cells [9]: > 50 µg/mL; IC80, titer in TZM.bl cells [9]: > 50 µg/mL
N49P7.1 (antibody)													neutralization IC50 [8]: 0.12 µg/mL; neutralization IC80 [8]: 0.431 µg/mL; neutralization MPI [8]: 100
N49P11 (antibody)							0.038	0.135	100	0.125	0.487	100	
